Article PMC7592630 (FASEB journal : official publication of the Federation of …, 2019)

Target: the molecule itself
Test: sucrose gradient velocity sedimentation

B1: C213Y Prph2 (natural protein, UniProt P15499 1-346, looked up)
chain: MALLKVKFDQKKRVKLAQGLWLMNWLSVLAGIVLFSLGLFLKIELRKRSEVMNNSESHFVPNSLIGVGVLSCVFNSLAGKICYDALDPAKYAKWKPWLKPYLAVCIFFNVILFLVALCCFLLRGSLESTLAYGLKNGMKYYRDTDTPGRCFMKKTIDMLQIEFKCCGNNGFRDWFEIQWISNRYLDFSSKEVKDRIKSNVDGRYLVDGVPFSYCNPSSPRPCIQYQLTNNSAHYSYDHQTEELNLWLRGCRAALLNYYSSLMNSMGVVTLLVWLFEVSITAGLRYLHTALESVSNPEDPECESEGWLLEKSVPETWKAFLESFKKLGKSNQVEAEGADAGPAPEAG
modifications: N-linked glycan (the paper shows that the mutant is glycosylated; Asn229 is the site in Prph2)
stoichiometry N: 4
